Assay: soluble fraction after stress (log2 fold change); higher = more stays soluble; pooled small domains, quantitative proteomics
Details: stress: 75 degC
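Note: 20 min heating vs room temperature control held 20 min.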

Row | Sequence | soluble fraction (log2)
1 | HMSTPERQEVLDILKRQGEMTPLQIAGQISRTSKSVSNILSKLKREGFVANGAKYGSWVSTES | -0.0675
2 | HMLAEEDRRRAERPGLDGNAVMVHLGIGPGRHVGEALAFLLEVRRSEGDLAVAELKSRIDAWWADR | -2.17
3 | HMQEAGKWLKKLRTERKITLEQLSKKTGLSVGFLSQFERGLTSIAIDTLEKIAAVFNVTIDYFISP | 0.0548
4 | HMFMVAGHLSEKNGYFYAVINYNDSLGNRKTKWMSTGLTVKGNKKRAEAILAEKRRTFQPDEPV | -1.71
5 | HMYLNYQTIGKRIRLLRKQQHLTQMTLAEMVDKSPTYISLVENGQKGPSLETLIDVANALKVTMDVLLAEY | -4.94
6 | HMTVVPNIVNQPEAAGTNLLISSNLKPGNRAVQYSDTVKAGDIISQSPEPGAQATLGGKVDYVISQGPAPT | 0.174
7 | HMNLWIDNTQVINDWTEGASERSGSIYLTAGVKPIKMQYFDSVLNAKAILRWQGPGINKSVVPSSALTPG | -1.14
8 | HMDTVEALTEQLKKLDKRGEGQIPAPEFKQYMMNMGGKMTAEELDEMMKVADPGKEGVVNIAEFADAL | 0.313
9 | HMIANNFDEFVEKVSEAERKALNMPAGQEMTQKLLEMKLAANPNLTPEEWQRTKSEFMTFLFAVFVRE | -0.939
10 | HMNGARALAGAIAEAIRKQVYRVNERLPAERELASHYDVSRGTLRSALALLEQEGLVTRKVGSGTFVMPP | -0.761
11 | HMTLTLEQAAAIKNSEGEQYGKIESERLAAMSVQIDKAIKSNGHDPNKKADLERKLDAIGIILNARAAG | 0.222
12 | HMAEEGEQAASNTAAQAEDRAAELAAAGEKGKQITKTLVAEFGIPKNEAYRLALDAVAAVKAER | -0.265
13 | HMTDLDDFAARLKTLTDGRASTPRLRDGVMMLSLDVGGLGPDQRDGLIAAIREGGLTVPGVSDVRIVMT | -0.125
14 | HMSEISAEAGKRIRYFRKSRSMTLEELAAVIHKSKATLSKYETGEISIDLDTLYDLAVALQVRAEQLLPAS | -4.35
15 | HMFPTLSPEEQRIVDQLAKENDLQANVIALRTALTIPQISALLFSLEMKGMVRLYAGGTYHLI | -4.6
16 | HMLLSYDIAEYIEKYIHEHGLQPGDRLPTERELAAQLDITRVSVRQGYKRLLDQGVIRSENGYYVNPPR | -1.68
17 | HMAPEPFIVQITASSLNVRKGPGTSYAVAQTVSKGQVFTIVQQQGGWGKLKSGAGWISLKYTAR | -1.74
18 | HMDYKLDVNFPEMYLEQIPAEKRAALIQILEQDPRPSYQKDPVRIYGMSYAGMEIHFRVDKETLYVTEVER | -1.06
19 | HMLDLYYDSEDKLLIDMGTGEVIRSFADDKRSLVFDAQAKILFDEDSGDIVYSSYFDKLITDKLASKS | -0.396
20 | HMGPEQLIGKTGIAASELAPRGEVKIEGQIWRAETVGDHVKQGEPVEVVSREGLILRVKPKHPQTRG | 0.0258
21 | HMDSKKNLLGKNGLAFTTLRPAGTVLIDGQRHDVISNGDMIPKGATVRVIAIEGASITVEALPD | 0.0814
22 | HMRLEYLVDVEEISIKEYLMLLGLSRRLARKIKLYGKMYINHQEAFNYHLVKKGDLLTIEFDE | -2.85
23 | HMPGIDDAAVEHAERVLAQHIGPMARLLVRRTVPRAANLFDLHRRLGALIPESEPRTAFLSAVVT | 0.0954
24 | HMDKIYVYTTRGQVIELPRGSTAIDFAYKIQTDIGNMIIAAIVNDKLVDANYVLHNKDRVKIVTS | -2.57
25 | HMSGENAVLTEGTMVTVRRGGETITATARKETVKQFLSRMDIIPGSREMVGIELMENSVMLTISD | -0.889
26 | HMKNYYEVLGVPRDAAAPDIKRAFRKLAKQFHPDHNPGDAKAEERFKLVSQAYDVLGDEEKRKLYDQFGE | 0.0891

Row | Sequence | soluble fraction (log2)
27 | HMDQNDYMLTRIRNGQMRNKVSVSMPASKIKSAIAAVLKDEGYIENFALNDSSGKPSLIVNLKYYAGQPV | -0.0681
28 | HMDSITEADLLRWAHALSGIARTGLGFTESRYERERYEEVLAVAADILAASSRSHDRAALVDEWLKMVGV | -2.03
29 | HMLLNSLIDTLAAEKATVVPGTEVFKLYDTYGFPWELTEEIASERGFTIDHEGFEAAMKEQRERAREARV | -0.104
30 | HMQTMNKTNISNFEKYLNSGDVSEVIVVRNKSSVRVTLTPEALRSSEHQAVVGKNILGQENIKGPHYQFEV | -0.0414
31 | HMAQWGFNGSEAGDLSFQQGDVIEVVEKVKDDWWRGRVLGSTEIGLFPS | -0.309
32 | HMNSHQNELDNALTEAHTASRRLLEGTDEYLDLSSQPAYIRRLQHLLAQKYNLGSLSSGVEPNRHIRLLQ | -0.265
33 | HMGELTSILVATKQIEPGETLSSSNTQVKSWISDLIPEGAITNPESVMGRTVSSVIGVGMPVVSLHLR | 0.462
34 | HMSVDVGMQLRKLREERKISMRELARLSGLSANALSMIERGLTSPSVSTLNKLAGALEVPITAFFRI | -1.35
35 | HMHKTEIKIPSREDILAVLRQAQAPLTREQVFEHLKLTEDQIPIIEKRLNAMERDGQLMPNRKGMLLLSTK | -0.0438
36 | HMSRSSQMVNFIRLLSQEKKVSVNSIFSSSVQLSDGIIVKINDFYYRVNLSLDQKTYSLVEVS | -0.483
37 | HMSPQIDYFDDEELDVYRQIAPEAYTDEQIEVFRDILYTLRPEEVEEWLISLEKREINLPLILRQEAIELI | 0.481
38 | HMENRILIPTAENIGERLDRYISSELDAPRSQVQIWIDSGLVAVSGGLKPKNYRLREGDEIEVTIPDPV | -0.11
39 | HMAGVSVTSLTTFWRLAADTPDTPSGADDPSGWSRTEPSIPDGYEGKLYRTIRTIMSDGTATWTSPD | -0.728
40 | HMKRQDFEFLVNLLRQNAGWDFDEEQYFVVDKKISNFIREKGYASVEDLIDELKVGAKPLISQVVESLAL | -0.576
41 | HMKSNKEKIYDFIQMHDTAEKEGGVSTTYIAQALSLQRTNVSSLLNALVEEGRIHKSNGRPVLYSIAG | -0.242
42 | HMGGLALAEREVVEWLSQRNLLPSPDVVARAAAHPDGLGWLERSLAVLEGPRLFLGLGDLVPEP | -0.688
43 | HMTITIGNSDGGYMKMGADGFEVRFSGSDGGNHYAKMYYNNDGWARLTLGSYGEEKARIDSDGMIQTR | 0.108
44 | HMTGLSAQILAKLRDNHGVLPVSDKSDPAVISNLFGVSKGNFKKAIGGLYKEGQIVIHADRIEL | -0.0972
45 | HMRRKDIEFTNTMLEELYRHNSKWYDAVVRAYALEIPQKQIAEEMGIRLEAFQSMLFRAKKWIKTKYEADY | -2.83
46 | HMLKHNLLSELSRIEGVGAVKRKALMDKFGTVENIKRASEEELSEVAGIGPTLARTIKEQMNKDE | -0.133
47 | HMLGSQQAYTDALRLTGLPVDIEVIESDRLPFLIPMRYSLDQHLIEVNVRYPDTRAIRVQQMVEELFHA | -0.631
48 | HMKQETLNEIGTKIRKLRESKNLSIQEFADKLEMEYNNVIRIEKGRTNFTIGTLVKIANSLEVNLKDI | -2.41
49 | HMVNHVGITVSNLERSIQFYEALTGKKIANQDTIGGKRMAQTQGLADTLIKYANLHLDNLNIDLLEYVE | -0.92
50 | HMKIERKGDESYLSFVERATSALSDGLIDYQQWGRAVVGEDLYSEENTRRIAKFFAQFIQNLEND | -2.62
51 | HMNILKKDKRLWDENNLNKPLLFELLENYDKEIFELLLTDKDIKAKFFVQAGESYVFKYDDFRFAIEQN | -3.32
52 | HMQDRDKNIEEGRQLVLHEMDRLDLVDEPLHDVARQLNMKAVEDMFAAVGAGDLRLGQIIHQLLKQADTN | -0.215

Row | Sequence | soluble fraction (log2)
53 | HMDTLHGRILEEFSRKIVDGTWPPGFSLPKETELADQYGVSRMTMNKVLTRLASDGFVIRRKRSGTVVAQP | -1.34
54 | HMDFEVGTVKWFNTKKGYGFITRDQGEDIFVHFRNIKGQGRRSLSDGERVSFVVTHGDKGLQADQVSP | -1.25
55 | HMQVAPQVERLLRVMGNETLSLSDIMGRMGLSDKKNFRESYLVPALRSAVIEMTIPDKPNSSLQKYRRIHE | -0.634
56 | HMGKDTLKLKKNAIPYDENGKKLTNLGYSYIKKTTVLNYYGTKIINGSTYYFLGDGVYIKAANVGTTSH | -2.56
57 | HMVSLNKTEFIAVKKASASELRDKINSLGLDVLKDATISADARTNQIIATGPKYALEQIKMLVVGLDVSS | -1.4
58 | HMGSEYILTIIPTPADATVFINGVKKNSASGVNGQILSWEVTKEGYIPQSGTFTINGKNETIEVVLQPQT | 0.122
59 | HMRVEEVGYGEFLQMAEERDLAEVQVTDTEIIFSDKDTPPNYYKTGRMDDPFLVDRLYSAGIRDFGE | -0.136
60 | HMSEILQLINKIDKKLEKGYTFANISRNHYEKIYKEEILNLYKTSKLKGEAEDSIKEVLESLLGDLRKP | -0.833
61 | HMGELVIPPLRERTVVDAVAEAERLGFVVQVEPVASSLPEGRVLGQSPEPGTRARKSQVVVLQVSRG | -0.614
62 | HMRQPAAVEYSTFLDWVHASQVERVVFEGDTIRGVRVTGEGFVTYSPETDNTALIGELKKSRVQISATAP | -0.508
63 | HMSDPELAIPRVVGLSGNDAQAALVKAGFSAVTVVTVKNSEVTSEQVTHVVPAEGAKAKASTPVTVVVSSS | -0.205
64 | HMAMYYVIGGDGQQYGPIDEATVRGWLGEGRVSAASLSFKTGEAQWIPLRDRPELADVLATA | -0.137
65 | HMNVNTNTILKSLMETYPDSTVFKKAEIVSIANSLGFKKSDYSPLTSTDNRTDVRGQYDLSAVIIPMRESN | -0.14
66 | HMGGALSPDFGWLAMIDPDEGRAITLYDIASGEAIAVLDTHEARVAALAWSPDGTRLASGDQNGLIVQWEI | -0.31
67 | HMIEDMQQWIRQIREIVSNRLDLTRNISDDEIREVISDIVMEQSRQQYMSLNEKKTLMEGVFNSMR | -0.534
68 | HMDKMVAVPNVRGIEASEAEATLIAQGLFVEVEKSDSEDANVAYGEVYAQTPKAGNRVEEGTTITIKVRTE | -0.0615
69 | HMRDLLPHFQRELQFLQTHRNEFAAAYPELGGRLATASDLLDDPHVERMVQSFALLAARVHKRLDDDF | 0.121
70 | HMRQYTPEQLETAVLVLEEVRQGRRLDRALRSHPMPDGRLIAKHVLVAAYRKLVAEGTWKEDPEFLSRIRM | -2
71 | HMFEDEPSEREIRISTLLAAFLKQEDGGTAVSRERFLKENSDVAEDLQILLEMADMIQEMAGP | -0.546
72 | HMAVKTEHGRIWKALPEGQDGYREDVPMFTSKSMYDGSAGIGIFLIRLYEATSDERWLKEAEEAAAHII | 0.157
73 | HMSLNQRIKEARIKMGYTQEQLGNLIGVAKTTISGYEKNREPDAATIGLIIDALKVDANFLFQ | -2.06
74 | HMRFMRVSQSKSKNSTSLYIIESVYTKDNKHTTRIVKKLGTVEELSKEHEDPLAWAKEVAKQMTEEAEQN | -0.569
75 | HMNFTKHPENPNFVVYRFTDPERANSFRAELIANNISFEEDTEKKKQLIYTLFAIHTKYYNQSMQINIK | -0.843
76 | HMGKSDEIFIQKSALYEELGQPDRALEMIYSALKSDSLNIDVLHRLVTLLINQNKNEDAILYNQKIID | -0.203

From the domain aggregation screens of Martell et al. (2025)
